Where no end group is shown, it is not given here.
Legend:
PSMA Fab (006 PSMA Fab) [1] = biological target: T1, PSMA Fab (006 PSMA Fab) (biotinylated (site not stated)); assay: clonal phage ELISA on plate-captured biotinylated PSMA Fab pre-incubated with PSMA antigen as competitor, anti-M13 HRP detection
T1 construct: also called Anti-PSMA Fab

PSMA Fab (006 PSMA Fab) [2] = biological target: T1, PSMA Fab (006 PSMA Fab); assay: clonal phage ELISA on plate-captured biotinylated PSMA Fab, blocking buffer alone, anti-M13 HRP detection
Experimental: (§1) Clonal phage were harvested as crude supernatants and screened via standard ELISAs. […] Prior to the addition of clonal phage. wells were incubated with blocking buffer and PSMA antigen or blocking buffer alone. Without washing or aspirating, clonal phage supernatants were then added to the wells and incubated for a short time. Wells were then washed followed by detection of bound phage using a horse radish conjugated anti-M13 antibody.

[3] = biological target: T2, PSMA Fab (SEQ ID NOs: 19, 20); assay: clonal phage ELISA; captured biotinylated PSMA Fab pre-incubated with PSMA antigen as competitor, anti-M13-HRP detection
T2 construct: also called Anti-PSMA Fab; 006 PSMA Fab
Experimental: as §1

[4] = biological target: T2, PSMA Fab (SEQ ID NOs: 19, 20); assay: clonal phage ELISA; biotinylated PSMA Fab captured on neutravidin plate, bound phage detected with anti-M13-HRP
Experimental: as §1

PSMA Fab (006 PSMA Fab) [5] = biological target: T3, PSMA Fab (006 PSMA Fab); assay: clonal phage ELISA on biotinylated PSMA Fab captured on neutravidin plates, anti-M13-HRP detection;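 further: crude clonal phage supernatants added to wells preincubated with PSMA antigen or with blocking buffer only (no wash between), briefly incubated, then washed before detecting bound phage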
T3 construct: also called Anti-PSMA Fab
Experimental: as §1

PSMA Fab (006 PSMA Fab) [6] = biological target: T3, PSMA Fab (006 PSMA Fab); assay: clonal phage ELISA on captured PSMA Fab pre-incubated with PSMA antigen as competitor, anti-M13-HRP detection;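 further: wells blocked with buffer plus PSMA antigen before phage addition, with blocking buffer alone as the no-competitor control, bound phage detected after washing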
Experimental: as §1

Anti-PSMA Fab [7] = biological target: T4, Anti-PSMA Fab; assay: clonal phage ELISA on biotinylated PSMA Fab captured on neutravidin plates, anti-M13-HRP detection;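 further: crude clonal phage supernatants added to wells preincubated with PSMA antigen or with blocking buffer only (no wash between), briefly incubated, then washed before detecting bound phage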
T4 construct: also called 006 PSMA Fab
Experimental: as §1

Anti-PSMA Fab [8] = biological target: T4, Anti-PSMA Fab; assay: clonal phage ELISA on captured PSMA Fab, wells pre-incubated with PSMA antigen as competitor, anti-M13-HRP detection;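 further: crude clonal phage supernatants added without washing after the PSMA preincubation, comparison wells received blocking buffer alone without PSMA, bound phage read after washing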
Experimental: as §1

B1: Phage-3831 (peptide)
peptide: GMKTCVPAWMCVGF
Phage binding ELISA signal, Anti-PSMA Fab in presence of PSMA (PSMA Fab (006 PSMA Fab) [1]): 0.08 | Phage binding ELISA signal, Anti-PSMA Fab (PSMA Fab (006 PSMA Fab) [2]): 1.24

B2: Phage-3802 (Peptide-180 library clone, SEQ ID NO: 4118) (peptide)
peptide: EVLRCVPRWMCEKF
notes: Tested as clonal phage supernatant; not shown: pIII coat protein of the bacteriophage to which the peptide is fused
Phage binding ELISA signal, Anti-PSMA Fab with PSMA antigen [3]: 0.0658 | Phage binding ELISA signal, Anti-PSMA Fab [4]: 1.3

B3: Phage-3821 (peptide)
peptide: PQIWCVPTWMCAAS
modifications: cysteine pairing not given here; also: displayed on phage as fusion to pIII, junction not given here
Phage binding ELISA signal, Anti-PSMA Fab (PSMA Fab (006 PSMA Fab) [5]): 1.26 | Phage binding ELISA signal, Anti-PSMA Fab with PSMA antigen (PSMA Fab (006 PSMA Fab) [6]): 0.0743

B4: Phage-3827 (peptide)
peptide: VDRMCVPPWMCDVL
Phage binding ELISA signal, Anti-PSMA Fab (PSMA Fab (006 PSMA Fab) [5]): 1.24 | Phage binding ELISA signal, Anti-PSMA Fab with PSMA antigen (PSMA Fab (006 PSMA Fab) [6]): 0.0859

B5: Phage-3801 (Peptide-180 library clone, SEQ ID NO: 4117) (peptide)
peptide: EWLVCKPAWMCLGL
notes: as for B2
Phage binding ELISA signal, Anti-PSMA Fab with PSMA antigen [3]: 0.0609 | Phage binding ELISA signal, Anti-PSMA Fab [4]: 1.3

B6: Phage-3797 (peptide)
peptide: VEYLCKPVWMCQGF
notes: Clone of the Peptide-180 optimisation library, tested as clonal phage supernatant
Phage binding ELISA signal, Anti-PSMA Fab (Anti-PSMA Fab [7]): 1.31 | Phage binding ELISA signal, Anti-PSMA Fab with PSMA antigen (Anti-PSMA Fab [8]): 0.0609

B7: Phage-3819 (peptide)
peptide: VHIMCVPPWMCERF
Phage binding ELISA signal, Anti-PSMA Fab (PSMA Fab (006 PSMA Fab) [5]): 1.27 | Phage binding ELISA signal, Anti-PSMA Fab with PSMA antigen (PSMA Fab (006 PSMA Fab) [6]): 0.0664

B8: Phage-3828 (peptide)
peptide: IDRHCIPAWMCEQF
Phage binding ELISA signal, Anti-PSMA Fab in presence of PSMA (PSMA Fab (006 PSMA Fab) [1]): 0.0571 | Phage binding ELISA signal, Anti-PSMA Fab (PSMA Fab (006 PSMA Fab) [2]): 1.24

B9: Phage-3800 (Peptide-180 library clone, SEQ ID NO: 4116) (peptide)
peptide: LELLCRPSWMCEGF
modifications: cysteine pairing not given here; also: displayed on phage as fusion to pIII, junction not given here
notes: as for B2
Phage binding ELISA signal, Anti-PSMA Fab with PSMA antigen [3]: 0.0665 | Phage binding ELISA signal, Anti-PSMA Fab [4]: 1.3

B10: Phage-3809 (Peptide-180 library clone, SEQ ID NO: 4125) (peptide)
peptide: DARLCKPTWMCMGL
notes: as for B2
Phage binding ELISA signal, Anti-PSMA Fab with PSMA antigen [3]: 0.0886 | Phage binding ELISA signal, Anti-PSMA Fab [4]: 1.29

B11: Phage-3811 (Peptide-180 library clone, SEQ ID NO: 4127) (peptide)
peptide: SFQRCEPEWMCYGF
notes: as for B2
Phage binding ELISA signal, Anti-PSMA Fab with PSMA antigen [3]: 0.0768 | Phage binding ELISA signal, Anti-PSMA Fab [4]: 1.29

B12: Phage-3826 (peptide)
peptide: VQHWCVPAWMCYGL
Phage binding ELISA signal, Anti-PSMA Fab (PSMA Fab (006 PSMA Fab) [5]): 1.24 | Phage binding ELISA signal, Anti-PSMA Fab with PSMA antigen (PSMA Fab (006 PSMA Fab) [6]): 0.107

B13: Phage-3823 (peptide)
peptide: QVKYCEPQWMCAGL
modifications: cysteine pairing not given here; also: displayed on phage as fusion to pIII, junction not given here
Phage binding ELISA signal, Anti-PSMA Fab (PSMA Fab (006 PSMA Fab) [5]): 1.25 | Phage binding ELISA signal, Anti-PSMA Fab with PSMA antigen (PSMA Fab (006 PSMA Fab) [6]): 0.0788

B14: Phage-3822 (peptide)
peptide: QEPVCRPAWMCSGF
Phage binding ELISA signal, Anti-PSMA Fab (PSMA Fab (006 PSMA Fab) [5]): 1.26 | Phage binding ELISA signal, Anti-PSMA Fab with PSMA antigen (PSMA Fab (006 PSMA Fab) [6]): 0.0764

B15: Phage-3818 (peptide)
peptide: ENAKCSPAWMCVGF
Phage binding ELISA signal, Anti-PSMA Fab (PSMA Fab (006 PSMA Fab) [5]): 1.27 | Phage binding ELISA signal, Anti-PSMA Fab with PSMA antigen (PSMA Fab (006 PSMA Fab) [6]): 0.0752

B16: Phage-3829 (peptide)
peptide: PEIRCAPLWMCVGF
Phage binding ELISA signal, Anti-PSMA Fab in presence of PSMA (PSMA Fab (006 PSMA Fab) [1]): 0.0725 | Phage binding ELISA signal, Anti-PSMA Fab (PSMA Fab (006 PSMA Fab) [2]): 1.24

B17: Phage-3812 (Peptide-180 library clone, SEQ ID NO: 4128) (peptide)
peptide: AYPMCSPAWMCAGF
modifications: cysteine pairing not given here; also: displayed on phage as fusion to pIII, junction not given here
notes: as for B2
Phage binding ELISA signal, Anti-PSMA Fab with PSMA antigen [3]: 0.0779 | Phage binding ELISA signal, Anti-PSMA Fab [4]: 1.29

B18: Phage-3810 (Peptide-180 library clone, SEQ ID NO: 4126) (peptide)
peptide: GDQMCIPLWMCEGF
notes: as for B2
Phage binding ELISA signal, Anti-PSMA Fab with PSMA antigen [3]: 0.106 | Phage binding ELISA signal, Anti-PSMA Fab [4]: 1.29

B19: Phage-3825 (peptide)
peptide: PGMVCKPSWMCSHL
Phage binding ELISA signal, Anti-PSMA Fab (PSMA Fab (006 PSMA Fab) [5]): 1.25 | Phage binding ELISA signal, Anti-PSMA Fab with PSMA antigen (PSMA Fab (006 PSMA Fab) [6]): 0.107

B20: Phage-3813 (Peptide-180 library clone, SEQ ID NO: 4129) (peptide)
peptide: YTAMCVPVWMCNVL
modifications: cysteine pairing not given here; also: displayed on phage as fusion to pIII, junction not given here
notes: as for B2
Phage binding ELISA signal, Anti-PSMA Fab with PSMA antigen [3]: 0.0695 | Phage binding ELISA signal, Anti-PSMA Fab [4]: 1.29

B21: Phage-3824 (peptide)
peptide: EAPYCRPSWMCAGF
modifications: cysteine pairing not given here; also: displayed on phage as fusion to pIII, junction not given here
Phage binding ELISA signal, Anti-PSMA Fab (PSMA Fab (006 PSMA Fab) [5]): 1.25 | Phage binding ELISA signal, Anti-PSMA Fab with PSMA antigen (PSMA Fab (006 PSMA Fab) [6]): 0.0837

B22: Phage-3808 (Peptide-180 library clone, SEQ ID NO: 4124) (peptide)
peptide: LGVQCKPTWMCQGF
notes: as for B2
Phage binding ELISA signal, Anti-PSMA Fab with PSMA antigen [3]: 0.0911 | Phage binding ELISA signal, Anti-PSMA Fab [4]: 1.29

B23: Phage-3806 (Peptide-180 library clone, SEQ ID NO: 4122) (peptide)
peptide: DQAACVPAWMCTGF
notes: as for B2
Phage binding ELISA signal, Anti-PSMA Fab with PSMA antigen [3]: 0.117 | Phage binding ELISA signal, Anti-PSMA Fab [4]: 1.3

B24: Phage-3820 (peptide)
peptide: LLERCVPSWMCLGF
Phage binding ELISA signal, Anti-PSMA Fab (PSMA Fab (006 PSMA Fab) [5]): 1.26 | Phage binding ELISA signal, Anti-PSMA Fab with PSMA antigen (PSMA Fab (006 PSMA Fab) [6]): 0.102

B25: Phage-3799 (peptide)
peptide: LELACRPMWMCQGF
notes: as for B6
Phage binding ELISA signal, Anti-PSMA Fab (Anti-PSMA Fab [7]): 1.31 | Phage binding ELISA signal, Anti-PSMA Fab with PSMA antigen (Anti-PSMA Fab [8]): 0.0709

B26: Phage-3807 (Peptide-180 library clone, SEQ ID NO: 4123) (peptide)
peptide: VVSHCKPIWMCSGF
notes: as for B2
Phage binding ELISA signal, Anti-PSMA Fab with PSMA antigen [3]: 0.083 | Phage binding ELISA signal, Anti-PSMA Fab [4]: 1.29

B27: Phage-3817 (peptide)
peptide: ATVVCSPPWMCTGF
Phage binding ELISA signal, Anti-PSMA Fab (PSMA Fab (006 PSMA Fab) [5]): 1.27 | Phage binding ELISA signal, Anti-PSMA Fab with PSMA antigen (PSMA Fab (006 PSMA Fab) [6]): 0.0662

B28: Phage-3798 (peptide)
peptide: MSMYCVPTWMCNGF
notes: as for B6
Phage binding ELISA signal, Anti-PSMA Fab (Anti-PSMA Fab [7]): 1.31 | Phage binding ELISA signal, Anti-PSMA Fab with PSMA antigen (Anti-PSMA Fab [8]): 0.0602

B29: Phage-3830 (peptide)
peptide: PPRACVPSWMCTGF
Phage binding ELISA signal, Anti-PSMA Fab in presence of PSMA (PSMA Fab (006 PSMA Fab) [1]): 0.0854 | Phage binding ELISA signal, Anti-PSMA Fab (PSMA Fab (006 PSMA Fab) [2]): 1.24

B30: Phage-3805 (Peptide-180 library clone, SEQ ID NO: 4121) (peptide)
peptide: HMIHCVPDWMCEGF
notes: as for B2
Phage binding ELISA signal, Anti-PSMA Fab with PSMA antigen [3]: 0.0847 | Phage binding ELISA signal, Anti-PSMA Fab [4]: 1.3

B31: Phage-3804 (Peptide-180 library clone, SEQ ID NO: 4120) (peptide)
peptide: IRALCEPSWMCTGF
notes: as for B2
Phage binding ELISA signal, Anti-PSMA Fab with PSMA antigen [3]: 0.0766 | Phage binding ELISA signal, Anti-PSMA Fab [4]: 1.3

B32: Phage-3815 (peptide)
peptide: ASISCIPDWMCHGF
Phage binding ELISA signal, Anti-PSMA Fab (PSMA Fab (006 PSMA Fab) [5]): 1.28 | Phage binding ELISA signal, Anti-PSMA Fab with PSMA antigen (PSMA Fab (006 PSMA Fab) [6]): 0.0872

B33: Phage-3816 (peptide)
peptide: LDLSCVPAWMCTGF
Phage binding ELISA signal, Anti-PSMA Fab (PSMA Fab (006 PSMA Fab) [5]): 1.28 | Phage binding ELISA signal, Anti-PSMA Fab with PSMA antigen (PSMA Fab (006 PSMA Fab) [6]): 0.0963

B34: Phage-3814 (peptide)
peptide: EFKWCVPDWMCYGV
modifications: cysteine pairing not given here; also: displayed on phage as fusion to pIII, junction not given here
Phage binding ELISA signal, Anti-PSMA Fab (PSMA Fab (006 PSMA Fab) [5]): 1.29 | Phage binding ELISA signal, Anti-PSMA Fab with PSMA antigen (PSMA Fab (006 PSMA Fab) [6]): 0.0589

B35: Phage-3803 (Peptide-180 library clone, SEQ ID NO: 4119) (peptide)
peptide: GGPMCKPVWMCQGF
notes: as for B2
Phage binding ELISA signal, Anti-PSMA Fab with PSMA antigen [3]: 0.0735 | Phage binding ELISA signal, Anti-PSMA Fab [4]: 1.3
